Earlier results on two substances are cited in PMC11386291.

Series [1] deals with MKK4 D-motif D-motif (Homo sapiens) (UniProt P45985).
Series [2] concerns the target MKK6 D-motif D-motif (Homo sapiens) (UniProt P52564).

Regarding JNK1 (from UniProt P45983), the Kd (commonly the concentration at which binding is half-saturated) in series [1] is 3.5 µM.

For p38α (from UniProt Q16539), the Kd in series [2] is 7.5 µM.
